From PMC4069020, “A 14.7 kDa Protein from Francisella tularensis subsp. novicida (Named FTN_1133), Involved in the Response to Oxidative Stress Induced by Organic Peroxides, Is Not Endowed with Thiol-Dependent Peroxidase Activity” (PLoS ONE, 2014)

Biological target: the molecule itself
Experiment: non-reducing SDS-PAGE

B1: FTN_1133 (14.7 kDa protein from Francisella tularensis subsp. novicida), recombinant His-tagged (natural protein)
chain: MAISQNVIKILQDIDELDLFSNISDEWSTLLNESDDNIKIKKLYSALVKESIRRETAERLAKDAKSYCDLVQEQAKQRISDLKESLESQITFLTQQIKDLKVESAKNLDYYRNELKKANRSLIDNKS
notes: also called His-FTN_1133
  stoichiometry N: 2
